Data reported in publication PMC13042984.

Target: RFX5 DBD (Homo sapiens) (UniProt P48382)
Assay: EMSA
Details: KD values only in figure; hmC/mC CpG; EMSA: 20 mM HEPES, 30 mM KCl, 1 mM EDTA, 1 mM (NH4)2SO4, 0.2% Tween 20, 1 mM DTT, 5 uM dA:dT competitor, 2 nM DNA, 20 min, 21 C (pH not stated); pulldown: 50 mM

Chain of RFX5 DBD (Homo sapiens) (P48382 75-168): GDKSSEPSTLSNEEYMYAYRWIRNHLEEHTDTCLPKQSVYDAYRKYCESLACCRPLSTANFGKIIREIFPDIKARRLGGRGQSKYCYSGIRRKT

X-box 1 probe hmC/mC
binding signal (fold weaker than mC/mC (KD)): 2.5
